Assay results: PMC7294946

Biological target: PRMT1 (UniProt Q99873)
Assay: co-IP with Flag antibody, western blot
Details: reference: Flag-RUNX1 wild type; sites T207

binding against the reference: weaker
Substance: RUNX1 (from UniProt Q01196) Flag-RUNX1 T207A
